Source: US12491255 (ARO BIOTHERAPEUTICS, dated 2025)

T1: human EpCAM on COLO-205 cells (human, UniProt P16422 24-314)
T1 sequence (looked up): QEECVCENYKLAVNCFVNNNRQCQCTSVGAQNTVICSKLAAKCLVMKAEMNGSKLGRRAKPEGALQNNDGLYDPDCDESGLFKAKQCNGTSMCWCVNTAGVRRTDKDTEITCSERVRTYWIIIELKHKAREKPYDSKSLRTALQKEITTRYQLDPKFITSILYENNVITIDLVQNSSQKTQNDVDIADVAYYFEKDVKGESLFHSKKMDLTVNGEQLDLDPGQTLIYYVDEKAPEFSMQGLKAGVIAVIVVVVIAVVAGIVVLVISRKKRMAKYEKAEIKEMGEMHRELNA

B1: EpCAM FN3 domain-MMAF conjugate of clone 680 (designed binder)
chain: MLPAPKNLVVSRVTEDSARLSWTAPYAAFDSFAISYRERSREGEVIALTVPGSERSYDLTGLKPGTEYIVGILGVKGGRRSKPLRAQFTT
modifications: VC-MMAF (maleimide) on a cysteine; position of the cysteine not stated
B2: EpCAM FN3 domain-MMAF conjugate of clone 639 (designed binder)
chain: MLPAPKNLVVSRVTEDSARLSWTAPDAAFDSFSISYRERSAWGEAIALVVPGSERSYDLTGLKPGIEYIVGIIGVKGGLRSNPLRADFTT
modifications: VC-MMAF (maleimide) on a cysteine; position of the cysteine not stated
B3: EpCAM binding FN3 domain clone 680 (designed binder)
chain: B1 chain
notes: not shown: No entry is named H9
B4: EpCAM binding FN3 domain clone 1807 (designed binder)
chain: MLPAPKNLVVSRVTEDSARLSWTAPDAAFDSFYIRYYEGSGYGEAIVLTVPGSERSYDLTGLKPGTEYYVYIGGVKGGSPSSPLSAIFTTG
notes: as for B3
B5: EpCAM binding FN3 domain clone 639 (designed binder)
chain: B2 chain
notes: as for B3
B6: EpCAM binding FN3 domain clone 1874 (designed binder)
chain: MLPAPKNLVVSRVTEDSARLSWTAPDAAFDSFKIGYWEWRKYGEAIELNVPGSERSYDLTGLKPGTEYRVLIYGVKGGAGSHPLRALFTT
notes: as for B3
B7: EpCAM binding FN3 domain clone 1420 (designed binder)
chain: MLPAPKNLVVSRVTEDSARLSWEGYRNNAHFDSFLIQYQESEKVGEAIVLTVPGSERSYDLTGLKPGTEYTVSIYGVVAAVPRNYYSNPLSAIFTT
notes: as for B3

molecular target: T1, human EpCAM on COLO-205 cells; assay: cell-based or functional assay

Binder | IC50 of EpCAM FN3 domain-MMAF conjugate molecules in COLO-205 Cells (cell viability, Cell TiterGlo, 72 hours)
B1 | 0.11 nM
B2 | 2.2 nM

molecular target: T1, human EpCAM on COLO-205 cells; assay: flow cytometry, periplasmic extract of soluble Centyrin on COLO-205 (EpCAM+) cells
Experimental: (§1) Three rounds of CIS display panning on recombinant huEpCAM protein (R&D Systems) were performed using TCL23 as described previously. The output from Round 3 was amplified and cloned into phagemid vector containing truncated pIII. An additional 4 rounds of selection on recombinant protein human EpCAM and Colo 205 (positive cells) with negative selection on A375 (negative cells) was performed. After 4 rounds of selection on recombinant protein and Colo 205 cells, 96 individual clones were assayed for binding to Colo 205 cells by phage ELISA; EpCAM negative cells (A375) were used as a negative control. Phage binding was assessed using a labeled anti-M13 antibody. Clones that were positive by phage ELISA were subcloned into a bispecific Centyrin expression plasmid where the carboxy terminal domain was an albumin binding Centyrin (H9). Soluble Centyrins were expressed, recovered from periplasmic extracts and assessed for binding to Colo205 (EpCAM+) and A375 (EpCAM-) (Table 4).

Mean BL-1 P.E. COLO-205 | Binder
10400 | B3
12900 | B4
10100 | B5
27100 | B6
22600 | B7

molecular target: T1, human EpCAM on COLO-205 cells; assay: flow cytometry, ratio of the signal on COLO-205 (EpCAM+) to that on A375 (EpCAM-) cells
Experimental: as §1

COLO-205/A375 | Binder
11.9 | B3
4.4 | B4
11 | B5
12.1 | B6
25.8 | B7
